Molecular target: T1, integrin-linked kinase (ILK) ankyrin repeat domain (ARD) (UniProt Q13418 1-171)
T1 sequence: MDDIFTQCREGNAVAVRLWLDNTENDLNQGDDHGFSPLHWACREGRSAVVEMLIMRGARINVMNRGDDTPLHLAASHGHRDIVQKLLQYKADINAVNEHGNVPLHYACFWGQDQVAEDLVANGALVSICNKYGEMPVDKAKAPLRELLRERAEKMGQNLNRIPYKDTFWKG
Experiment: ITC

Kd: ~68 nM
B1: PINCH LIM1 domain (domain or fragment)
chain: MANALASATCERCKGGFAPAEKIVNSNGELYHEQCFVCAQCFQQFPEGLFYEFEGRKYCEHDFQMLFAPC

Reference: article PMC2873192 (Journal of the American Chemical Society, 2009)
